{"source": "patent EP3988566A1", "about": "(AC Immune SA, dated 2022)", "target": "Amyloid Beta (antigen of the Amyloid Beta ELISA) (UniProt P05067 672-713, limits assumed)", "sequence (P05067 672-713 limits assumed)": "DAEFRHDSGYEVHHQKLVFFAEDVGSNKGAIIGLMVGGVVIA", "experiment": "Amyloid Beta ELISA, purified antibodies"}
{"binder": "humanized antibody C2 HuVH2/HuVK3 (antibody, V domains shown) VH: EVQLVESGGGLVQPGGSLRLSCAASGFTFSSYGMSWVRQAPGKGLEWVASINSNGGSTYYPDSVKGRFTISRDNAKNSLYLQMNSLRAEDTAVYYCASGDYWGQGTTVTVSS VL: DIVMTQSPLSLPVTPGEPASISCRSSQSLVYSNGDTYLHWYLQKPGQSPKLLIYKVSNRFSGVPDRFSGSGSGTDFTLKISRVEAEDVGVYYCSQSTHVPWTFGQGTKVEIKR", "values": [{"measurement": "fold reduction of binding activity against the chimeric control antibody C2 ChVHAF/ChVK", "result": "~2", "unit": "fold"}]}
